Consider six molecules from patent US20040137580A1.

The target in assay [1] is PSGL1/mIgG2b fusion protein produced in COS-7 m6 cells without cotransfection of the α1,3 GT cDNA (human; mouse) (UniProt Q14242). Briefly: depletion of COS supernatant on beads, remaining fusion protein by anti-mouse IgG Fc sandwich ELISA.
The target in assay [2] is PSGL-1/mIgG2b made in 293T clone 14 (with porcine α1,3GalT) (human; mouse) (UniProt Q14242). Put plainly: sandwich ELISA, fusion protein captured by goat anti-mouse IgG Fc, detected with peroxidase-conjugated lectin or anti-mouse IgG Fc.
Assay [3] has as its target PSGL-1/mIgG2b made in CHO-K1 clone C2-1-9 (with porcine α1,3GalT and C2 GnT1) (human; mouse) (UniProt Q14242). The assay is described as above.
Assay [4] has as its target PSGL-1/mIgG2b made in COS7 m6 clone 5I (with porcine α1,3GalT) (human; mouse) (UniProt Q14242). Described as above.
In assay [5] the target is PSGL-1/mIgG2b made in CHO-K1 clone 5L4-1 (with porcine α1,3GalT) (human; mouse) (UniProt Q14242). The assay is described as above.
Assay [6] concerns the target anti-pig reactive antibodies of human blood group AB serum. Put plainly: cell-based or functional assay.

On to “goat anti-mouse IgG agarose beads (A-6531, Sigma) (antibody)”, for which, in assay [1], the amount of PSGL1/mIgG2b absorbed onto 50 µl packed beads from 2 ml of supernatant came out at 260 ng, the amount of PSGL1/mIgG2b absorbed onto 50 µl packed beads from 4 ml of supernatant came to 290 ng and the amount of PSGL1/mIgG2b absorbed onto 50 µl packed beads from 8 ml of supernatant turned out to be 360 ng.

As to “peroxidase-conjugated Bandereia simplicifolia isolectin B4 (L-5391, Sigma)”, the fold increase in the relative O.D. (GSA-reactivity/anti-mouse IgG reactivity) against PSGL-1/mIgG2b made in 293T without the α1,3GalT in assay [2] was 3.1 fold. In assay [3], this molecule gave a fold increase of α-Gal epitope density (relative O.D. GSA-reactivity/anti-mouse IgG reactivity) against PSGL-1/mIgG2b made in CHO-K1 cells without the α1,3GalT of 13 fold and a fold increase of α-Gal epitope density (relative O.D. GSA-reactivity/anti-mouse IgG reactivity) against PSGL-1/mIgG2b made with the α1,3GalT alone of 7.4 fold. Further, the fold increase in the relative O.D. (GSA-reactivity/anti-mouse IgG reactivity) against PSGL-1/mIgG2b made in COS without the α1,3GalT in assay [4] amounted to 5.3 fold. The molecule further had a fold increase in the relative O.D. (GSA-reactivity/anti-mouse IgG reactivity) against PSGL-1/mIgG2b made in CHO without the α1,3GalT in assay [5] of 1.8 fold.

B1: PSGL-1/mIgG2b made in COS7 m6 clone 5I (with porcine α1,3GalT) (Fc fusion, human, UniProt Q14242 18-320, looked up, not shown: a dimerising Fc or GST)
chain: LQLWDTWADEAEKALGPLLARDRRQATEYEYLDYDFLPETEPPEMLRNSTDTTPLTGPGTPESTTVEPAARRSTGLDAGGAVTELTTELANMGNLSTDSAAMEIQTTQPAATEAQTTQPVPTEAQTTPLAATEAQTTRLTATEAQTTPLAATEAQTTPPAATEAQTTQPTGLEAQTTAPAAMEAQTTAPAAMEAQTTPPAAMEAQTTQTTAMEAQTTAPEATEAQTTQPTATEAQTTPLAAMEALSTEPSATEALSMEPTTKRGLFIPFSVSSVTHKGIPMAASNLSVNYPVGAPDHISVKQC
modifications: α-Gal substituted glycans (COS7 m6 cells co-expressing porcine α1,3GalT)
In assay [6], B1 had a PAEC cytotoxicity of blood group AB serum after adsorption of 12% and an amount of adsorber needed to reduce the PAEC cytotoxicity of human AB serum to 40% of maximum, against CHO cell-made PSGL-1/mIgG2b of 16 times less.

B2: PSGL-1/mIgG2b made in 293T clone 14 (with porcine α1,3GalT) (Fc fusion, human, UniProt Q14242 18-320, looked up, not shown: a dimerising Fc or GST)
chain: B1 chain
modifications: α-Gal substituted glycans (293T cells co-expressing porcine α1,3GalT)
Take B2: in assay [6], the PAEC cytotoxicity of blood group AB serum after adsorption worked out at 25% and the amount of adsorber needed to reduce the PAEC cytotoxicity of human AB serum to 40% of maximum, against CHO cell-made PSGL-1/mIgG2b worked out at 4 times less.

B3: PSGL-1/mIgG2b made in CHO-K1 clone C2-1-9 (with porcine α1,3GalT and C2 GnT1) (Fc fusion, human, UniProt Q14242 18-320, looked up, not shown: a dimerising Fc or GST)
chain: B1 chain
modifications: core 2 branched O-glycans with terminal Galα1,3Gal (Hex-HexNol-HexN-Hex-Hex; NeuAc-Hex-HexNol-HexN-Hex-Hex; NeuGc-Hex-HexNol-HexN-Hex-Hex)
B3 yielded an amount of adsorber needed to reduce the PAEC cytotoxicity of human AB serum to 40% of maximum, against PSGL-1/mIgG2b made in CHO clone 5L4-1 in assay [6] of 10 times less.

B4: PSGL-1/mIgG2b made in CHO-K1 clone 5L4-1 (with porcine α1,3GalT) (Fc fusion, human, UniProt Q14242 18-320, looked up, not shown: a dimerising Fc or GST)
chain: B1 chain
modifications: glycans of CHO-K1 cells co-expressing porcine α1,3GalT
With B4, in assay [6], the amount of adsorber needed to reduce the PAEC cytotoxicity of human AB serum to 40% of maximum amounted to 9.1 µg and the lowest PAEC cytotoxicity of blood group AB serum reached after adsorption is over 36%.
